Publication PMC3167755

Target: T1, Fur-His6 (CjFur-His6) (Campylobacter jejuni 81-176) (UniProt P0C631)
T1 sequence: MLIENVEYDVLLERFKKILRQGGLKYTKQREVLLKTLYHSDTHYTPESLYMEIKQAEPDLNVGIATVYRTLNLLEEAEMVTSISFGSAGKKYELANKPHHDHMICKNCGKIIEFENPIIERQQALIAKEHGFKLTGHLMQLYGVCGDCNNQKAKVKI
Experiment: EMSA
Details: 10 mM Tris-HCl pH 7.5, 1 mM MgCl2, 0.5 mM DTT, 50 mM KCl, 100 uM MnCl2 (omitted where stated), 1 ug poly(dI-dC), 50 ug BSA, 5% glycerol, 20 ul, ~28 fmol DNA …

Q: With “GCTAATGCAAAACTTGAATAAAATACAAGAGCTAAAACAAATTTGCAAAAAAATTTACGCATATTATATCCTTGGTTAAATAAAATTTTCAAAGATAATTTTATTTAAAAAAATAAATAAGCCCAAATTTATTTTTGGGCTTATTGTTATTTTTTAGGATTGAATGCTTGATCAACACTAAAAGGCATTGCTTGATAACCCGTGCCTGAACCGCTAAATTGAATTTGAACCGAAGGCTCCTTAGCACCCCAGTTAAATTCATCAATTTCAGGTTTTGGCTCTCCAAGACTTACACCT (double strand) [dsbA1 promoter region]” as the sequence, how does the binding read?
A: no binding
